Source: article PMC11286949, “Structural basis of tRNA recognition by the widespread OB fold”
Positions count from the first letter of the chain named.

Assays:
Details in all cases: protein: recombinant; tags: His-MBP removed; tRNA fold
Arc1p dN [1] = target: T1, Arc1p dN (Saccharomyces cerevisiae, UniProt P46672 132-376, del1-131); experiment: competition fluorescence polarization; ITC (Arc1p): 25 mM Tris-HCl pH 7.4, 150 mM NaCl, 2 mM MgCl2, 25 °C. FP and competition FP: 25 mM Tris-HCl pH 7.5, 150 mM NaCl (Arc1p) or 50 mM NaCl (Trbp111), 2 mM MgCl2, room temperature
T1 sequence: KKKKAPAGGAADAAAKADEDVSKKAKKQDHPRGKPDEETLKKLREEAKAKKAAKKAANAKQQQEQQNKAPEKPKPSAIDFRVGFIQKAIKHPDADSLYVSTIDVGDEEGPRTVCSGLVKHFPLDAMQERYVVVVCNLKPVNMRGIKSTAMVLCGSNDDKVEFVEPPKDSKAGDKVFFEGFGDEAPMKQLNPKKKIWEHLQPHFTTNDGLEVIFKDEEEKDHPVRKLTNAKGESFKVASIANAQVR

Arc1p [2] = target: T2, Arc1p (Saccharomyces cerevisiae, UniProt P46672 1-376); experiment: as above
T2 sequence: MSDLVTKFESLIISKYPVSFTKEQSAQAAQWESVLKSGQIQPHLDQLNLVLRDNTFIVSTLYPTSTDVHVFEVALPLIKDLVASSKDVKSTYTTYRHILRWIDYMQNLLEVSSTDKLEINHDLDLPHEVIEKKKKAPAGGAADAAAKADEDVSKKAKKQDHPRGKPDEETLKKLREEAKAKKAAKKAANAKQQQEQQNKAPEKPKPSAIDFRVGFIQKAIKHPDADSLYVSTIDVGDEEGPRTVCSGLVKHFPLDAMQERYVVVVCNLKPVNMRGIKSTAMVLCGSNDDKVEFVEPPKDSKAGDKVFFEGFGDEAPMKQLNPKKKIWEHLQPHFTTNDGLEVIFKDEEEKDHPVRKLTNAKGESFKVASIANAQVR

Arc1p dN K269A = target: T3, Arc1p dN K269A (Saccharomyces cerevisiae, UniProt P46672 132-376, K269A;del1-131); experiment: ITC; ITC (Arc1p): 25 mM Tris-HCl pH 7.4, 150 mM NaCl, 2 mM MgCl2, 25 °C. FP and competition FP: 25 mM Tris-HCl pH 7.5, 150 mM NaCl (Arc1p) or 50 mM NaCl (Trbp111), 2 mM MgCl2, room temperature
T3 sequence: T1 sequence with K138A

Arc1p dN [3] = target: T1, Arc1p dN; experiment: as above
Arc1p [4] = target: T2, Arc1p; experiment: as above
Arc1p dN S278A/M281A = target: T4, Arc1p dN S278A/M281A (Saccharomyces cerevisiae, UniProt P46672 132-376, S278A;M281A;del1-131); experiment: as above
T4 sequence: T1 sequence with S147A, M150A

Arc1p dN S278A = target: T5, Arc1p dN S278A (Saccharomyces cerevisiae, UniProt P46672 132-376, S278A;del1-131); experiment: as above
T5 sequence: T1 sequence with S147A

B1: tRNAIle WT (structured_RNA)
RNA: AGGCUUGUAGCUCAGGUGGUUAGAGCGCACCCCUGAUAAGGGUGAGGUCGGUGGUUCAAGUCCACUCAGGCCUACCA
Q: Which IC50 (Arc1p dN [1]) does the source give for B1 here?
A: The IC50 was 363 ± 96.4 nM.

Q: What about the IC50 (Arc1p [2]) of the same binder?
A: The IC50 was 948 ± 241 nM.

Q: What about the Kd (Arc1p dN K269A) of the same binder?
A: Its Kd is 1500 ± 55 nM.

Q: What about the Kd (Arc1p dN [3]) of the same binder?
A: The Kd was 321 ± 101 nM.

Q: And the Kd (Arc1p [4])?
A: The Kd was 1280 ± 130 nM.

Q: And the Kd (Arc1p dN S278A/M281A)?
A: Its Kd is 1430 ± 379 nM.

Q: And the Kd (Arc1p dN S278A)?
A: Its Kd is 845 ± 149 nM.
